Results reported in PMC8091585.

Legend:
[1] = target: Pyruvate:ferredoxin oxidoreductase PFOR1 of Thermoanaerobacter kivui (Thermoanaerobacter kivui); experiment: SEC; analytical size exclusion chromatography on a calibrated Superdex 200 column, buffer E (50 mM Tris/HCl, 150 mM NaCl, 20 mM MgSO4, 2 mM DTE, 4 µM resazurin, 20% glycerol, pH 7.5), size standards ovalbumin, albumin, catalase, ferritin
[2] = target: Pyruvate:ferredoxin oxidoreductase PFOR1 of Thermoanaerobacter kivui (Thermoanaerobacter kivui)

Row | stoichiometry N [1] | Km for Fd of the pyruvate-dependent Fd reduction by purified PFOR1 (enzyme activity, 66 °C, pH 7.5, Fd 0-50 µM) [2] | Molecule
1 | 2 |  | Pyruvate:ferredoxin oxidoreductase PFOR1 of Thermoanaerobacter kivui (enzyme)
2 |  | 19.1 µM | Ferredoxin isolated from Clostridium pasteurianum (natural protein) MAYKIADSCVSCGACASECPVNAISQGDSIFVIDADTCIDCGNCANVCPVGAPVQE
